According to the supplement of paper PMC9170038:

System: MS2 coat protein
Test: apparent KD of MS2 coat protein; higher = weaker reporter binding
Conditions: Eterna round: R107; input ligand: arginine 13.2 mM
Description: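 RNA-MaP round R107: designed RNA switches with theophylline, tryptophan, arginine or FMN aptamers are transcribed on-chip within common flanks. They are titrated with SNAP-549-labelled MS2 coat protein in RNA-MaP buffer (100 mM Tris pH 7.5, 80 mM KCl, 4 mM MgCl2), without ligand or with the indicated ligand. Median apparent KD per design.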

Row | Sequence | apparent KD of MS2 coat protein [nM]
1 | CACGAAAGAUCGGCCGCCACUAAUCUAUGUGUUCUUUCACAUGAGGAUCACCCAUGUUCUUGCGUUAGGACCGGGAUUGAGCGUG [#02 Exclusion Tryptophan B] | 29.9

Same assay, conditions: Eterna round: R107; input ligand: none

Row | Sequence | apparent KD of MS2 coat protein [nM]
2 | GGGCGUGUGGCGCGGCGUGCUCCGCUCCGUCGAGGACCGGUACGGCCGCCACUCGACAUGAGGAUCACCCAUGUGCGAGCUCGCG [#1 Exclusion - Tryptophan A Attempt #11 (HarryS)] | 33.8
3 | UUCUUUAAGUCGGCCGCCACUGAAACAUGAGGAUCACCCAUGUAUAUUUGGGUAUAGGUGGAUUACAGGACCGGGACUAUAGUAA [JR_ExcTryptoB_Sub022] | 66.1
4 | GGGCAAGAGGGAAGGAGCGUCGGCUGAGUAACAUGAGGAUCACCCAUGUAGCACAUGGUGUGGCAGGUAGGUCGCCCUCUGCCCU [SS-ArgB8] | 103
5 | GGCUGUCAUAGGAGGUCAAAUAUACUCGAAGGAGCGUCAUAGUAGGCAGGUAGGUCGCGAGACAUGAGGAUCACCCAUGUAGAGA [xkxmullin] | 69.1
6 | AACAACAAGGGAAGGAGCGCGAAUUAUAGACAUGAGGAUCACCCAUGUAACAUGGGAUUAACGCAGGUAGGUCGCCCACAAACAA [#08 Exclusion - Arginine B] | 162
7 | AGAGUUAGACAAAAGUCUAGCUCACCAGAAGGAGCGUCCGAAAGGACAGGUAGGUCGCUGGUACCUGAGGAUCACCCGGGUUCCU [ArgAS 17 #OpenEnded #AlternativeMS2] | 282
8 | GGGCCCGGGCCCGAUACCAGCAGAGAAAACAUAUAUCCUAACAUGAGGAUCACCCAUGUAUGCCCUUGGCAGCGGGCCCGGGCCC [#15 Exclusion-TheophyllineB] | 34.5
9 | UUCAGCUAGUCGGCCGCCACUACUUGAGGAUCACCCAGGUAAUCCUAACACUGCUUCGGCAGUGGUAGGACCGGGACUAGCUGAG | 19
10 | GGGUGCGGCACGGCCGCCACUGCGGUGGUGUGACAUGAGGAUCACCCAUGUUGUCAUGCGGCCCUUAGGACCGGGUGGCGUGCCU [#1 Exclusion - Tryptophan B Attempt #15 (HarryS)] | 24.1
11 | AAAUAAAUACAUGAGGAUCACCCAUGUGAAGGAGCGCGCGUUAGCGCAGGUAGGUCGCACAUGAAAGGGAAGCGAAAGAAAUAAU [MAT - Exclusion Arginine A - Mod of Eli - D16] | 19
12 | GCUAGUGGCAGAAGGAGCGAGGCGACAUACGGGUACAUGAGGAUCACCCAUGUGGUGUGUCCUCAGGUAGGUCGCUGCCACUAGC [SSAB NP+V+V2 #12] | 74.7
13 | GGCACCAGGAGAAGGAGCGUGAAGACAUGAGGAUCACCCAUGUAGAGGCCCGGACAGGGUUCGCAGGUAGGUCGCUCCUGGUGCC [#1 Same State - Arginine B Attempt #10 (HarryS)] | 8.29
14 | GGGUCGGGCGCGGCCGCCACUGCGGUGGUGUGACAUGAGGAUCACCCAUGUUGUCAUGCGGCCCUUAGGACCGGGCGCCCGGCCC [#1 Exclusion - Tryptophan B Attempt #11 (HarryS)] | 42.5
15 | GGACUAACCAGAAGGAGCGACACAAAGCAGAAACUGCAUCCUCCGCACGAGGAUCACCCGUGUCAGGUAGGUCGCUGGUUAGUCG [ArgBX 28] | 50.2
16 | GCACCAGGUACGGAUACCAGCUGCCACGGUUACAUGAGGAUCACCCAUGUGAUAAGGUGUAGCCCUUGGCAGCUGUACCUGGUGC [SSThB NP+V+V2 #7 +-Same Structure] | 142
17 | GGACUAACCAGAAGGAGCGACGCGCAGAAACUGCAAUUUCCUCCACACGAGGAUCACCCGUGUCAGGUAGGUCGCUGGUUAGUCG | 17.4
18 | AAAGGUAGCAAUAAAUCUCCUACAUGUGAAGGAGCGCCCGAAAGGGCAGGUAGGUCGCACAUGAGGAUCACCCAUGUGAGCUACC [ArgEX 5 #SwitchBubble] | 15.2
19 | GGUAUGUAUUCGGAAACGAAUGCAUACCAACGAGGACCGGUACGGCCGCCACUCGCGGCUGAUCAACAUGAGGAUCACCCAUGUA [Ex Tryptophan A 4] | 24.8

Same assay, conditions: Eterna round: R107; input ligand: theophylline 20 uM

Row | Sequence | apparent KD of MS2 coat protein [nM]
20 | CUUGGCUGUGCGGCCGCCACUGGCUCAUCCUGCAUUACAUGAGGAUCACCCAUGUUGCGGCCUCCCAGGACCGGGCAUAGCCUGA [Usesties] | 702
21 | AUCGUACCUAAUGAUACCAGCAAGUGAUCAUAACAUGAGGAUCACCCAUGUAAUCAGUGAUGCCCUUGGCAGCAUAAUCGAUACA [Same State - Theophylline B (Freestyle 3)] | 170
22 | GGGCGUGUGGCGCGGCGUGCUCCGCUCCGUCGAGGACCGGUACGGCCGCCACUCGACAUGAGGAUCACCCAUGUGCGAGCUCGCG [#1 Exclusion - Tryptophan A Attempt #11 (HarryS)] | 35.6
23 | UUCUUUAAGUCGGCCGCCACUGAAACAUGAGGAUCACCCAUGUAUAUUUGGGUAUAGGUGGAUUACAGGACCGGGACUAUAGUAA [JR_ExcTryptoB_Sub022] | 72.3
24 | GGGCAAGAGGGAAGGAGCGUCGGCUGAGUAACAUGAGGAUCACCCAUGUAGCACAUGGUGUGGCAGGUAGGUCGCCCUCUGCCCU [SS-ArgB8] | 201
25 | GCACCAGGUACGGAUACCAGCUGCCAGAGAUACAUGAGGAUCACCCAUGUGACCUGAUUUAGCCCUUGGCAGCUGUACCUGGUGC [SSThB NP+V+V2 #2 Same Structure] | 472
26 | GGCUGUCAUAGGAGGUCAAAUAUACUCGAAGGAGCGUCAUAGUAGGCAGGUAGGUCGCGAGACAUGAGGAUCACCCAUGUAGAGA [xkxmullin] | 122
27 | AACAACAAGGGAAGGAGCGCGAAUUAUAGACAUGAGGAUCACCCAUGUAACAUGGGAUUAACGCAGGUAGGUCGCCCACAAACAA [#08 Exclusion - Arginine B] | 237
28 | AGAGUUAGACAAAAGUCUAGCUCACCAGAAGGAGCGUCCGAAAGGACAGGUAGGUCGCUGGUACCUGAGGAUCACCCGGGUUCCU [ArgAS 17 #OpenEnded #AlternativeMS2] | 172
29 | GUCCUCGACACGGCCGCCACUGGCUCGCCUGUUGGCGCCGACCCACAUGAGGAUCACCCAUGUUCCAGGACCGGGUGUCACAGCA [theeternabot_sameState_MS2_Trp_B_42] | 312
30 | GGGCCCGGGCCCGAUACCAGCAGAGAAAACAUAUAUCCUAACAUGAGGAUCACCCAUGUAUGCCCUUGGCAGCGGGCCCGGGCCC [#15 Exclusion-TheophyllineB] | 33.9
31 | UUCAGCUAGUCGGCCGCCACUACUUGAGGAUCACCCAGGUAAUCCUAACACUGCUUCGGCAGUGGUAGGACCGGGACUAGCUGAG | 21.6
32 | GAUGAACUAUAUGAUACCAGACAACAUGAGGAUCACCCAUGUGUAAGUCGUCCUCUGCCUGUCCCUUGGCAGCGUAUAGUUUAUC [XTheo B #18] | 76.4
33 | GACCCAUGAGUUGCAAAAGCUCAUGGGUCGCGAGGACCGGUACGGCCGCCACUCGGCUGUACAUGAGGAUCACCCAUGUCAGGGU [#1 Same State - Tryptophan A Attempt #26 (HarryS)] | 615
34 | GGGUGCGGCACGGCCGCCACUGCGGUGGUGUGACAUGAGGAUCACCCAUGUUGUCAUGCGGCCCUUAGGACCGGGUGGCGUGCCU [#1 Exclusion - Tryptophan B Attempt #15 (HarryS)] | 31.2
35 | AAAUAAAUACAUGAGGAUCACCCAUGUGAAGGAGCGCGCGUUAGCGCAGGUAGGUCGCACAUGAAAGGGAAGCGAAAGAAAUAAU [MAT - Exclusion Arginine A - Mod of Eli - D16] | 28.6
36 | AGAUUAAAGAGUGAUACCAGACUACAUGAGGAUCACCCAUGUUACAUUUGAGUAGCUUUAGUCCCUUGGCAGCACUUUAUGUACA [JR_Nu_ExcTheophyB_Sub023] | 42.9
37 | GCAUAGUAAAAUGAUACCAGAGUCAAAACAGACAUGAGGAUCACCCAUGUGCAUAUACAACUCCCUUGGCAGCAUUAAAACGGGA [theeternabot_sameState_MS2_Theo_B_28] | 18.7
